According to the supplement of paper PMC10567573:

B1: EPB41L3 (parent)
chain: GSKFRYSGRTQAQTRRASALIDRP

Variants of: B1
Experiment: protein stability index of a GFP-peptide fusion (GPS, HEK-293T) (PSI 1-6); higher = more stable
Settings: c terminus: a fixed tail appended
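Note: lentivirally expressed fusions sorted by FACS into six bins by GFP to DsRed ratio, PSI derived from sequencing read proportions per bin multiplied by bin number.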

Variant | protein stability index
S7M | 3.35
S7C | 2.1
S7D | 3.68
S7F | 2.96
S18I | 2.7
S18T | 2.29
F4C | 3.4
F4T | 4.17
F4S | 4.04
R23A | 2.81
R23F | 2.69
R23M | 2.41
T10P | 3.74
T10I | 2.37
R16C | 2.52
R16D | 3.56
R16P | 3.15
D22Q | 3.54
D22F | 3.4
D22I | 2.83
D22T | 3.02
Q13M | 2.47
Q13F | 2.69
Q13N | 3.39
Q13C | 2.98
P24C | 3.06

Variant | protein stability index
P24R | 3.54
P24L | 2.56
P24V | 3.05
A12S | 3.41
A12G | 3.11
A12E | 3.2
A12H | 2.82
A12I | 3.07
K3E | 2.19
K3H | 2.33
K3M | 2.84
K3V | 2.33
K3N | 3.08
K3L | 2.92
G1R | 3.17
G1K | 3.33
G1V | 2.43
G1T | 3.08
R5V | 3.2
R5F | 2.89
R5W | 2.62
R5H | 3.1
R5N | 3.23
S2Q | 2.77
S2E | 3.98
S2C | 2.44

Variant | protein stability index
I21Y | 2.73
I21P | 2.71
A19W | 2.45
A19G | 2.91
R15H | 2.97
R15I | 2.66
G8F | 2.96
G8Q | 3.39
G8C | 1.72
G8L | 3.44
R9C | 2.94
R9L | 2.92
R9G | 3.32
R9W | 2.33
Y6M | 4.64
Y6D | 4
L20Y | 3.02
L20Q | 3.79
Q11H | 2.85
A17W | 2.21
A17G | 3.22
A17L | 2.65
A17R | 3.25
A17H | 2.57
